This is an account of results in patent US20240327530A1 (ICHNOS SCIENCES, published 2024).

As a reminder, the EC50 (read off the curve) is the midpoint of the concentration-response curve. Broadly, the Kd is a measure of binding affinity in units of concentration. For orientation: koff means the first-order rate constant of dissociation. For orientation: kon means the second-order rate constant of association.

The target in assay [1] is T1, Human IL-1RAP, membrane-bound on human cells (HaCaT, dermal fibroblasts, neutrophils, PBMC, whole blood) (human, UniProt Q9NPH3 21-570).
T1 construct: Endogenous protein on cells
T1 sequence: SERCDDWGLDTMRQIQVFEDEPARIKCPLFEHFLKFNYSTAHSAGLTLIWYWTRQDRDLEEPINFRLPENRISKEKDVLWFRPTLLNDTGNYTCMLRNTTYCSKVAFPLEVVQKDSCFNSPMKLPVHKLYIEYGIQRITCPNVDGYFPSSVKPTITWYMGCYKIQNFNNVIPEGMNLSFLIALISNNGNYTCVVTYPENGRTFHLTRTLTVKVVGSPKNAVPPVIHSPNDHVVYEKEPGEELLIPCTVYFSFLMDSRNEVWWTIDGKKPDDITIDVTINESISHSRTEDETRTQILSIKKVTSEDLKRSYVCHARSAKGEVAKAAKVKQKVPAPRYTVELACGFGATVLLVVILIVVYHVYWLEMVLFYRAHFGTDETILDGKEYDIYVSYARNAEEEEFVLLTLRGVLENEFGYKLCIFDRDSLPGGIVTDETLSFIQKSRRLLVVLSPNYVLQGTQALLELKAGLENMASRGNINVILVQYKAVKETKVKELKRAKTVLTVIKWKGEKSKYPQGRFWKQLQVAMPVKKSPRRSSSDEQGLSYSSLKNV
Kind of assay: flow cytometry on HaCaT wild-type cells, anti-human IgG PE-Cyanine7, relative geometric MFI (isotype subtracted). As for the experimental part: A dose-response of anti-human IL-1RAP_candidate_1 (●) or Isotype control_5 (▪) was incubated with various cell lines and cell types. Bound antibodies were detected with a monoclonal anti-human IgG PE-Cyanine7 secondary antibody. The graphs show the nonlinear sigmoidal regression binding curves (Relative Geometric Mean Fluorescence Intensity) for each cell lines. Each data point is a measurement for a given cell line. Multiple independent experiments were performed across several donors (HaCaT and HaCaT IL-1RAP KO: 4 and 3 independent experiments; Human Dermal Fibroblasts: 2 independent experiments—total of 5 donors; Human Neutrophil: 2 experiments—total of 6 donors; Cyno Dermal Fibroblasts: 2 independent experiment—total of 4 donors).
In brief, cells were harvested, counted, and plated at 50,000 cells/well in a 96-well round-bottom plate. […] The cells were gated based on size on FSC vs SSC and analyzed for PE-Cyanine7-geometric mean (geomean) fluorescence intensity using FLOWJO® software. Finally, relative geomean fluorescence intensity was calculated by subtracting fluorescence of anti-human IL-1RAP_candidate_1 per fluorescence of Isotype control_5. […]

Assay [2] addresses T2, Recombinant cynomolgus monkey IL-1RAP-ECD(S21-E359)-avi-his protein (cynomolgus monkey, UniProt P59822 21-359 (rhesus entry)).
T2 construct: also called cyno IL-1RAP-ECD-Avi-His; recombinant cynomolgus monkey IL-1RAP-avi-his protein
T2 sequence: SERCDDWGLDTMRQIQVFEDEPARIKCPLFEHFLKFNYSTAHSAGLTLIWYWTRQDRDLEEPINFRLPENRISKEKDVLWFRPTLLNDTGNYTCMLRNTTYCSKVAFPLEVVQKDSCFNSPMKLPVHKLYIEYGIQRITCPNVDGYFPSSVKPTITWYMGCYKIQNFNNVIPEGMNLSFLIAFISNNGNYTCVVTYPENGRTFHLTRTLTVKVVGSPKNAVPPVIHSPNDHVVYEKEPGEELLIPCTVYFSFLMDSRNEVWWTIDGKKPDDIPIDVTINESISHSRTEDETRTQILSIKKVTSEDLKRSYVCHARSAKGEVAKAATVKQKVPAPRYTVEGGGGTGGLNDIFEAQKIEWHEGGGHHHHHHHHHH
The assay is described as follows: SPR, IgG1 LALA captured on anti-human IgG Fc CM5 chip, cynomolgus monkey IL-1RAP-avi-his as analyte in a concentration series, 1:1 fit, one representative replicate. As for the experimental part:
Anti-IL-1RAP-C8-RecC-ES IgG1 LALA was immobilized on a Series S CM5 sensor CHIP coupled with anti-human IgG Fc. Human IL-1RAP-avi-his or cynomolgus monkey IL-1RAP-avi-his was injected over immobilized IgG1 LALA in concentration series in HBS-EP+ buffer. One representative replicate for human IL-1RAP and cynomolgus monkey IL-1RAP is presented. Plots are showing data expressed as number of resonance units (abbreviated RU; Y axis) vs. time (s, X axis). Dotted lines represent the measured data while solid lines represent simulated fits. KD: equilibrium dissociation constant; Ka: association constant; Kd: dissociation constant.
Surface plasmon resonance (SPR) was used to measure the binding affinities of the human IgG1 LALA molecules for human and cynomolgus monkey IL-1RAP. Affinities were measured on a BIACORE™ T200 instrument (BIACORE™, GE […]®) at 25° C. and analyzed with the BIACORE™ T200 Evaluation Software (v3.1). Measurements were performed on Series S CM5 sensor chips (BIACORE™ T200, BIACORE™, GE […]®, catalog no. BR100530) coupled with anti-human IgG Fc (BIACORE™, GE […]®, catalog no. BR100839) using a commercial amine coupling kit (BIACORE™, GE […]®, catalog no. BR100050). SPR measurements were performed with recombinant human IL-1RAP-avi-his protein produced in house (SEQ ID NO. 1) or recombinant cynomolgus monkey IL-1RAP-avi-his protein produced in house (SEQ ID NO. 2). The affinities to human and cynomolgus monkey IL-1RAP were assessed by immobilizing anti-IL-1RAP IgG1 LALA molecules and using IL-1RAP proteins as analyte. Around 150 RU of human IgG1 LALA were captured on fc2 of a Series S CM5 sensor chip coupled with anti-human IgG Fc. Recombinant human IL-1RAP-avi-his protein or recombinant cynomolgus monkey IL-1RAP-avi-his protein was injected in multi cycle kinetic at different concentrations ranging from 0.14 to 100 nM, in HBS-EP+ buffer (BIACORE™, GE […]®, catalog no. BR100669) at a flow rate of 30 μl/min for 3 min on fc1 and fc2 (fc1 being used as reference). Dissociation was monitored for 12 min.
On the technique in general: Surface plasmon resonance follows binding to a sensor surface in real time, without labels.

B1: Anti-IL-1RAP-C8-RecC-ES-IgG1LALA (antibody, V domains shown)
VH: QVQLVQSGAEVKKPGSSVKVSCKASGSPAEPYAIQWVRQAPGQGLEWMGYIIPSLGGYDYAQKFQGRVTITADESTSTAYMELSSLRSEDTAVYYCARGQTLYESGRQFDIWGQGTLVTVSS
VL: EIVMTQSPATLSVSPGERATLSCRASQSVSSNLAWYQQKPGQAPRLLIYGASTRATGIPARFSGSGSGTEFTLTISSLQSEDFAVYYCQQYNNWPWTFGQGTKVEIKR
notes: also called ISB 880-C8-recC-ES
Turning to B1, the “EC50 (read off the curve)” value in assay [1] was roughly 0.1 µg/mL. In assay [2], the Kd was found to be 0.307 nM, the koff turned out to be 0.000196 s⁻¹ and the kon is 638000 M⁻¹ s⁻¹.
